Results taken from PMC3247260.

Target: K63-linked diUb (UniProt P0CG48)
Experiment: ITC; USP13-UBA12 (1.25 mM stock) injected into K63-, K48-, linear diUb (0.1 mM) or monoUb (0.2 mM), 25 injections of 1.5 µL; 50 mM Tris, 150 mM NaCl, pH 7.5; 25°C

Substance “tandem UBA domains of USP13 (USP13-UBA12, residues 652-776) (from UniProt Q92995 652-776) (domain or fragment)” has a Kd of 1 µM.
